Read-outs that look alike come from different tables or passages of the source. Each block holds one molecule with its values, some of them ahead of it.
How the values were obtained:
[1] = molecular target: T1, PAN (Methanocaldococcus jannaschii, UniProt Q58576); assay: α-32P-ATP binding, rapid spin gel filtration
T1 sequence (Q58576 1-430): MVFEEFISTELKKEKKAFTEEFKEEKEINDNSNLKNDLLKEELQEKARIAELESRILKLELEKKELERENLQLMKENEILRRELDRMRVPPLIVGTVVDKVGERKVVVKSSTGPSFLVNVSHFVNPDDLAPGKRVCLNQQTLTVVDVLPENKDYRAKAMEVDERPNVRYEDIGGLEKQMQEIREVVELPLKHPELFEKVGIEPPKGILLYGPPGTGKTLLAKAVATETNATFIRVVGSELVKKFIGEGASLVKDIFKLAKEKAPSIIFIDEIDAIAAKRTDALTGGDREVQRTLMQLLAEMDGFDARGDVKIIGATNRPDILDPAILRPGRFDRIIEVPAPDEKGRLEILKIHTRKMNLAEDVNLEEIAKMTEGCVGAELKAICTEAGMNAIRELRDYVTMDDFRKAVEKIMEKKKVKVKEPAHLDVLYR

[2] = molecular target: PAN ATPase complex (UniProt Q58576); assay: fluorescence polarisation
[3] = molecular target: PAN ATPase complex (UniProt Q58576); assay: fluorescence polarisation; remark: listed apart in the source
[4] = substrate: Nc1ncnc2c1ncn2[C@@H]1O[C@H](COP(=O)(O)OP(=O)(O)OP(=O)(O)O)[C@@H](O)[C@H]1O; assay: ATPase, inorganic phosphate release; assay type: biochemical, Methanocaldococcus jannaschii; details: 45 °C

Molecule: Nc1ncnc2c1ncn2[C@@H]1O[C@H](COP(=O)(O)OP(=O)(O)OP(=O)(O)O)[C@@H](O)[C@H]1O [ATP]
Kd [1]: 13 µM

change in polarization [2]: 56 mP
change in polarization [3]: 7 mP
Molecule: FITC-casein (from UniProt P02666 16-224) (natural protein)

B1: PAN (Methanocaldococcus jannaschii DSM 2661) (protein)
chain: MVFEEFISTELKKEKKAFTEEFKEEKEINDNSNLKNDLLKEELQEKARIAELESRILKLELEKKELERENLQLMKENEILRRELDRMRVPPLIVGTVVDKVGERKVVVKSSTGPSFLVNVSHFVNPDDLAPGKRVCLNQQTLTVVDVLPENKDYRAKAMEVDERPNVRYEDIGGLEKQMQEIREVVELPLKHPELFEKVGIEPPKGILLYGPPGTGKTLLAKAVATETNATFIRVVGSELVKKFIGEGASLVKDIFKLAKEKAPSIIFIDEIDAIAAKRTDALTGGDREVQRTLMQLLAEMDGFDARGDVKIIGATNRPDILDPAILRPGRFDRIIEVPAPDEKGRLEILKIHTRKMNLAEDVNLEEIAKMTEGCVGAELKAICTEAGMNAIRELRDYVTMDDFRKAVEKIMEKKKVKVKEPAHLDVLYR
Km [4]: 263 ± 18 µM

Source: article PMC3063399 (Cell, 2011)
